# Reference: patent publication US6803203B1, “DNA-PK assay” (Brookhaven Science Associates, priority 1993, dated 2004)
# B1: recombinant wild-type mouse p53: wild-type mouse p53 purified from Sf9 insect cells infected with recombinant virus NPVp53 (protein, UniProt P02340 1-390, looked up)
# Cellular tumor antigen p53: MTAMEESQSDISLELPLSQETFSGLWKLLPPEDILPSPHCMDDLLLPQDVEEFFEGPSEALRVSGAPAAQDPVTETPGPVAPAPATPWPLSSFVPSQKTYQGNYGFHLGFLQSGTAKSVMCTYSPPLNKLFCQLAKTCPVQLWVSATPPAGSRVRAMAIYKKSQHMTEVVRRCPHHERCSDGDGLAPPQHLIRVEGNLYPEYLEDRQTFRHSVVVPYEPPEAGSEYTTIHYKYMCNSSCMGGMNRRPILTIITLEDSSGNLLGRDSFEVRVCACPGRDRRTEEENFRKKEVLCPELPPGSAKRALPTCTSASPPQKKKPLDGEYFTLKIRGRKRFEMFRELNEALELKDAHATEESGDSRAHSSYLKTKKGQSTSRHKKTMVKKVGPDSD
# B2: substrate 1: wild-type recombinant substrate: Ser Gln Glu DNA-PK site and wild-type Oct-1 POU domain; product of p349SUB1 (protein)
# chain: MPEESQETFEDLWKLLPGHHHHHHGMSGGMEEPSDLEELEQFAKTFKQRRIKLGFTQGDVGLAMGKLYGNDFSQTTISRFEALNLSFKNMCKLKPLLEKWLNDAENLSSDSSLSSPSALNSPGIEGLSRRRKKRTSIETNIRVALEKSFLENQKPTSEEITMIADQLNMEKEVIRVWFCNRRQKEKRINPQPELAPEDPED
# modifications: POUSUB1 artificial DNA-PK substrate
# notes: wild-type recombinant substrate: Ser Gln Glu DNA-PK site and wild-type Oct-1 POU domain; product of p349SUB1
# Legend:
# DNA-PK [1] = molecular target: T1, DNA-PK (Homo sapiens, UniProt P78527); experiment: Phosphorylation of mouse p53 by DNA-PK as a function of DNA concentration; type: biochemical; conditions: calf thymus DNA 100 μg/ml
# T1 construct: DNA-PK was purified from HeLa cells; endogenous in cells; host or cells: HeLa S3 cells; the endogenous enzyme was purified in house by chromatography
# Method: To determine whether DNA binding affected p53 phosphorylation by DNA-PK, the rate of phosphorylation of recombinant wild-type mouse p53 was measured as a function of DNA concentration. At low calf thymus DNA concentrations (0 to approximately 10 μg/ml), the initial rate of p53 phosphorylation increased sharply but then decreased as the DNA concentration was further increased. At DNA concentrations of 100 μg/ml, the rate of p53 phosphorylation fell to approximately 25% of the rate at 5 μg/ml. A similar dependence of phosphorylation rate on calf thymus DNA concentration was observed using SV40 TAg or the human Oct-1 POU domain as substrates.
# DNA-PK [2] = molecular target: T1, DNA-PK; experiment: Phosphorylation of recombinant protein substrates by purified DNA-PK (SDS-PAGE, phosphorimage); type: biochemical
# Method: The recombinant protein substrates, a total of six, (at approximately 0.1 mg/ml final concentration) were separately mixed with hsp90 in a phosphorylation reaction with purified DNA-PK (0.6 pg, 0.02 units/assay) without (−) or with (+) 5 μg/ml calf thymus DNA, in the presence of ^32P-ATP for 30 minutes at 30° C. as described by Lees-Miller, et al., Mol. Cell. Biol., 12:5041-5049 (1992). The phosphorylation reactions were stopped with SDS sample buffer and analyzed with SDS-PAGE. The gel was fixed, stained with Coomassie brilliant blue, dried and developed by autoradiographic procedures. The results of which can be seen in FIG. 9.
molecule,measurement,setting,value
B1,rate of p53 phosphorylation relative to the rate at 5 μg/ml DNA,DNA-PK [1],approximately 25%
B2,increase in phosphate incorporation by addition of double stranded DNA,"DNA-PK [2]; 5 μg/ml calf thymus DNA compared to no addition of DNA, 30 minutes at 30° C.",20 fold
same,phosphorylation by purified DNA-PK (in words),"DNA-PK [2]; DNA-dependent, compared with hsp90","equal to, if not better than, hsp90"
